The results in this text go back to patent publication US20090203048A1 (UNIVERSITY OF MASSACHUSETTS, published 2009).

The target in test [1] is bombesin receptor of PC3 cells. Description: 125I-ligand binding to PC3 cells; with 12 µM NIF.
Test [2] deals with bombesin receptor of PC3 cells. Description: 125I-ligand binding to PC3 cells, 37C; with 12 µM Rev-5901.
For test [3], the target named is bombesin receptor of PC3 cells. Description: 125I-ligand binding to PC3 cells, 37C; with 12 µM MK886.
The target in test [4] is bombesin receptor of PC3 cells. As to the kind of experiment: 125I-ligand binding to PC3 cells, 37C; with 12 µM AA-861.
Test [5] has as its target bombesin receptor of PC3 cells. Description: 125I-ligand binding to PC3 cells, 37C; with 60 µM MK886.
Test [6] concerns the target bombesin receptor of PC3 cells. As to the kind of experiment: 125I-ligand binding to PC3 cells; with 12 µM verapamil.
Test [7] concerns the target bombesin receptor of PC3 cells. As to the kind of experiment: 125I-ligand binding to PC3 cells; with 12 µM SKF-96365.
The target of test [8] is bombesin receptor of PC3 cells. Description: 125I-ligand binding to PC3 cells; with 60 µM NIF.
In test [9] the target is bombesin receptor of PC3 cells. Description: Scatchard analysis, PC3 cells, 37C.
In test [10] the target is bombesin receptor of PC3 cells. Description: displacement of 125I-ligand by unlabeled ligand, PC3 cells, 37C. (Displacement assays read how much labelled ligand stays bound in the presence of the test substance.)
In test [11] the target is bombesin receptor of PC3 cells. Description: 125I-ligand binding to PC3 cells; with 60 µM SKF-96365.
In test [12] the target is bombesin receptor of PC3 cells. As to the kind of experiment: 125I-ligand binding to PC3 cells, 37C; with 12 µM NDGA.
The target of test [13] is bombesin receptor of PC3 cells. Description: 125I-ligand binding to PC3 cells; with 60 µM phloretin.
Test [14] concerns the target bombesin receptor of PC3 cells. As to the kind of experiment: 125I-ligand binding to PC3 cells, 37C; with 60 µM Rev-5901.
Test [15] concerns the target bombesin receptor of PC3 cells. As to the kind of experiment: 125I-ligand binding to PC3 cells; with 60 µM verapamil.
Test [16] deals with bombesin receptor of PC3 cells. As to the kind of experiment: 125I-ligand binding to PC3 cells; with 12 µM phloretin.
Test [17] concerns the target bombesin receptor of PC3 cells. As to the kind of experiment: 125I-ligand binding to PC3 cells, 37C; with 60 µM NDGA.
The target of test [18] is bombesin receptor of PC3 cells. Description: 125I-ligand binding to PC3 cells, 37C.
The target of test [19] is bombesin receptor of PC3 cells. Description: 125I-ligand binding to PC3 cells, 37C; with 60 µM AA-861.
The target in test [20] is vasopressin (V1a) receptor of PC3 cells (UniProt P37288). Description: 125I-HOLVA binding to PC3 cell membranes; with 60 µM NIF.
The target is the same in test [21]. Description: 125I-HOLVA binding to PC3 cell membranes; with 60 µM verapamil.
Test [22] shares this target. Description: 125I-ligand binding to PC3 cells; with 12 µM NIF.
Test [23] shares this target. Description: 125I-ligand binding to PC3 cells, 37C; with 12 µM Rev-5901.
For test [24] the target is unchanged. As to the kind of experiment: 125I-ligand binding to PC3 cells, 37C; with 12 µM MK886.
Test [25] shares this target. As to the kind of experiment: 125I-ligand binding to PC3 cells, 37C; with 12 µM AA-861.
Test [26] has the same target. Description: 125I-ligand binding to PC3 cells, 37C; with 60 µM MK886.
Test [27] has the same target. Description: 125I-ligand binding to PC3 cells; with 12 µM verapamil.
Test [28] shares this target. As to the kind of experiment: 125I-ligand binding to PC3 cells; with 12 µM SKF-96365.
Test [29] shares this target. Description: 125I-ligand binding to PC3 cells; with 60 µM NIF.
Test [30] shares this target. As to the kind of experiment: Scatchard analysis, PC3 cells, 37C.
For test [31] the target is unchanged. Description: displacement of 125I-ligand by unlabeled ligand, PC3 cells, 37C.
Test [32] has the same target. As to the kind of experiment: 125I-ligand binding to PC3 cells; with 60 µM SKF-96365.
The target is the same in test [33]. As to the kind of experiment: 125I-ligand binding to PC3 cells, 37C; with 12 µM NDGA.
The target is the same in test [34]. Description: 125I-ligand binding to PC3 cells; with 60 µM phloretin.
The target is the same in test [35]. Description: 125I-ligand binding to PC3 cells, 37C; with 60 µM Rev-5901.
Test [36] shares this target. As to the kind of experiment: 125I-ligand binding to PC3 cells; with 60 µM verapamil.
Test [37] shares this target. As to the kind of experiment: 125I-ligand binding to PC3 cells; with 12 µM phloretin.
The target is the same in test [38]. As to the kind of experiment: 125I-ligand binding to PC3 cells, 37C; with 60 µM NDGA.
For test [39] the target is unchanged. As to the kind of experiment: 125I-ligand binding to PC3 cells, 37C.
For test [40] the target is unchanged. As to the kind of experiment: 125I-ligand binding to PC3 cells, 37C; with 60 µM AA-861.
For test [41] the target is unchanged. Description: 125I-HOLVA binding to PC3 cell membranes; with 60 µM SKF-96365.
Test [42] concerns the target T1, neurotensin receptor 1 (NTR1) of PC3 cells (UniProt P30989 1-418, limits assumed).
T1 construct: whole, on cells; its antiserum peptide is from human NTR1; Some assays used isolated PC3 cell membranes or detergent or SDS extracts instead of live cells (see the assay field); also called NT receptor
Description: UV crosslinking on PC3 cells, immunoprecipitated NTR1; with verapamil against control.

Test [43] concerns the target T1, neurotensin receptor 1 (NTR1) of PC3 …. Description: UV crosslinking on PC3 cells, immunoprecipitated NTR1; with phloretin against control.
Test [44] shares this target. Description: UV crosslinking on PC3 cells, immunoprecipitated NTR1; with NIF against control.
Test [45] has the same target. As to the kind of experiment: UV crosslinking on PC3 cells, immunoprecipitated NTR1; with 50 µM NDGA.
Test [46] has the same target. Description: UV crosslinking on PC3 cells, immunoprecipitated NTR1; with 50 µM MK886.

Sequence of vasopressin (V1a) receptor of PC3 cells (P37288 whole entry): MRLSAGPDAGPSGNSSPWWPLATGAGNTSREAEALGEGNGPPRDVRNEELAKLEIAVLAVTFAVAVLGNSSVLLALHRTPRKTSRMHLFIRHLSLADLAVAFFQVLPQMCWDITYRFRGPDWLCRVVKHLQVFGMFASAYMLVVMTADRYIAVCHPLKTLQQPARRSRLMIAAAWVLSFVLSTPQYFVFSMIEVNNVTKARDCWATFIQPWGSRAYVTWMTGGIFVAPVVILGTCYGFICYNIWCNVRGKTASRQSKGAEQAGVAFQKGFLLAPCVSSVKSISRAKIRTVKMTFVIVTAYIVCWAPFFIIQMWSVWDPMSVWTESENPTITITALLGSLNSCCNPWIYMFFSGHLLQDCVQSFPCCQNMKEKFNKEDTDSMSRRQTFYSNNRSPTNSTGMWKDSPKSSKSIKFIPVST
T1 sequence (P30989 whole entry): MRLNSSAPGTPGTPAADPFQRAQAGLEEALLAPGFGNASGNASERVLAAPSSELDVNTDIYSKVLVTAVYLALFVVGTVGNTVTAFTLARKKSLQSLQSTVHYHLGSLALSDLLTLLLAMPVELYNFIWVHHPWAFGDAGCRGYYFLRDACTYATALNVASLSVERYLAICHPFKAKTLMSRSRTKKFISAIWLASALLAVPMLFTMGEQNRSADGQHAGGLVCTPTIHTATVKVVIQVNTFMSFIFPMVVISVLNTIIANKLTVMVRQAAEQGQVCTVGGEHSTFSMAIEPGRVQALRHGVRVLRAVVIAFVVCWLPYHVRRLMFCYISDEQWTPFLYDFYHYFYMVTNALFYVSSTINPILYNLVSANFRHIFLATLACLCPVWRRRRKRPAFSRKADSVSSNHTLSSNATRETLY
Sequence of bombesin receptor of PC3 cells (P30550 whole entry): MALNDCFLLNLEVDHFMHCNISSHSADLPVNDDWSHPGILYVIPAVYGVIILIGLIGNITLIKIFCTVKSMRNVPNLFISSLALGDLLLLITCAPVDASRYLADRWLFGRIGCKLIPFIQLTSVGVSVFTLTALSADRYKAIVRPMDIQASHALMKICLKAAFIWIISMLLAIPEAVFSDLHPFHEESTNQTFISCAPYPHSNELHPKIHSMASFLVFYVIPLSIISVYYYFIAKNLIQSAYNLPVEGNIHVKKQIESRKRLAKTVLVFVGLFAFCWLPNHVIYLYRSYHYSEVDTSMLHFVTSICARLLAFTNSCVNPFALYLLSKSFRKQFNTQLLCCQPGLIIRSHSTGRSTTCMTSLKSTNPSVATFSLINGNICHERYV

Broadly, the Ki is a dissociation constant, usually derived from enzyme kinetics or from competition with a known ligand. As for (Tyr 4, Nle 14)-bombesin (peptide), the Specific Binding (% control) in test [1] worked out at 108 % control; in test [2] it was 107 % control; in test [3], 106 % control; in [4] it was 112 % control; in test [5] it was 125 % control; in test [6], 104 % control. Also, the Specific Binding (% control) in [7] is 99 % control; in test [8], 119 % control; in [11], 106 % control; in test [12], 110 % control; in [13], 111 % control; in test [14], 119 % control. The Specific Binding (% control) in test [15] is 104 % control; in test [16] it was 104 % control; in [17], 127 % control; in test [19] it was 135 % control. In test [9], this molecule gave a Bmax of 1020 fmol/mg. This molecule yielded a Ki in test [10] of 0.6 nM. Also, the Specific Binding (% of total) in [18] is 95 % of total.

“des-Gly-[Phaal, D-Tyr(Et)2, Lys6, Arg8]-vasopressin (HOLVA) (peptide)”: the Binding (% control) is 90 % control in test [20], 91 % control in test [21] and 110 % control in test [41]. Besides, the Specific Binding (% control) in [22] is 95 % control; in test [23], 68 % control; in test [24] it was 93 % control; in test [25], 87 % control; in [26], 67 % control; in [27], 85 % control. Besides, the Specific Binding (% control) in test [28] was 80 % control; in test [29], 59 % control; in [32], 50 % control; in test [33], 84 % control; in test [34], 73 % control; in [35], 42 % control. Also, the Specific Binding (% control) was determined as 58 % control in test [36], 92 % control in test [37], 50 % control in test [38] and 57 % control in [40]. Further, the Bmax in [30] stood at 156 fmol/mg. Further, in test [31], the Ki came to 0.5 nM. Besides, the Specific Binding (% of total) in [39] was 77 % of total.

B1: ^125I-[4-azido-Phe^6]-NT (peptide)
peptide: ELYENFPRRPYIL
modifications: 4-azido-Phe at position 6; pGlu at position 1; 125I iodinated
notes: the residue at 6 is 4-azido-phenylalanine
As to B1, the “fold increase in radioactivity associated with NTR1” value in test [42] amounted to 1.5 fold; in test [43], 1.8 fold; in [44], 2.8 fold; in test [45], 2.6 fold; in test [46] it was 2.7 fold.
